From article PMC12754631, “Cis‐2‐decenoic acid modulates Pseudomonas aeruginosa virulence through a noncanonical transcriptional regulator” (mLife, 2025)

Tests used:
[1] = target: T1, FadD1 (Pseudomonas aeruginosa, UniProt Q9HYU4); assay: microscale thermophoresis; assay type: binding
T1 construct: expressed in E. coli BL21, Ni-NTA, His-tag removed by TEV protease; labelled for MST

[2] = target: T2, FadD1 (Pseudomonas aeruginosa PAO1) (UniProt Q9HYU4); assay: EMSA
T2 sequence: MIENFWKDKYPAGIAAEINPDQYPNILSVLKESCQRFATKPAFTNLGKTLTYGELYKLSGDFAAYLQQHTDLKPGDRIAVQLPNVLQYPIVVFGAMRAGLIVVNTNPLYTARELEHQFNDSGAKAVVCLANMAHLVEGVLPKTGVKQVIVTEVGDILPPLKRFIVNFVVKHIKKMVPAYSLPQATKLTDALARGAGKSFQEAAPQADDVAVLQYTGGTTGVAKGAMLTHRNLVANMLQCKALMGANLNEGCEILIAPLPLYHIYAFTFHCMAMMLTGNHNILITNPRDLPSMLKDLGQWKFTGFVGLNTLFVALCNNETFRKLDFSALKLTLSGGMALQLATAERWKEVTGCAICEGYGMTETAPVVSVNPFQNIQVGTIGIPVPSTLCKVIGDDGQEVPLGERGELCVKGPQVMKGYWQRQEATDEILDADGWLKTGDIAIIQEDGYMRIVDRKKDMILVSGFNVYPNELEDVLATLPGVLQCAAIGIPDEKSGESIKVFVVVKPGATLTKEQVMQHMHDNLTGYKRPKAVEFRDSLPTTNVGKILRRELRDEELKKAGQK

Compound | Kd [1] | binding [2]
CCCCCCC/C=C\C(=O)O [cis-DA] | 1060 ± 140 nM | 
CCCCCCCCC/C=C\C(=O)O [BDSF] | 1650 ± 210 nM | 
ATCTCATGCAGATGCCGGAGTTCTCCCTGAACTTCGCCTTGTTGCATACATGGCAAGCGCGCCATGGCGGAGCGCGACGGCTGAATATCTAGCACGAAAGTGAAAATAGAAAAGAACGAGATTTCATAAGGGCGGGCGCCGTTTTTAACAGGTTGTTCATGCGTCGCCGCTAGTTTGTTGTCTTTCACAGAACTGTTCGATGAACGGACTTGTTGCATTAGAACAATAAGTCCCGATGGAACTTCGGGGGACCGTGTGAAGCGTTCGCTGTTCAATTGTGCGCAC (double strand) [PA0692 promoter] |  | binds
GTGCGCACAATTGAACAGCGAACGCTTCACACGGTCCCCCGAAGTTCCATCGGGACTTATTGTTCTAATGCAACAAGTCCGTTCATCGAACAGTTCTGTGAAAGACAACAAACTAGCGGCGACGCATGAACAACCTGTTAAAAACGGCGCTATGAAATCTCGTTCTTTTCTATTTTCACTTTCGTGCTAGATATTCAGCCGTCGCGCTCCGCCATGGCGCGCTTGCCATGTATGCAACAAGGCGAAGTTCAGGGAGAACTCCGGCATCTGCATGAGAT (double strand) [PA0692 promoter, AGGGCGG deleted] |  | no binding
GTCGGCGTTTCATGGAATTGTCACAACCGCACAGTATCGCTTGCGGTAAAGCGGCCCAGGTGGTCGAACGTTGTCATAGGGAGGGGGATGCTCGATGGCTGAAGGCTGCGTCCTGAACGGTGCTGGCATAACAGATAGGGTTGCCATGATTTTGCCGTATCGGCAAGGCTGCGCGCTTGACAGCGTCATACCCCGGGCCAATTCTGCTGTGATGCATTTTATCGATCAGGGCTTACTGCAATGAGGAATGACGGAGGCTTTTTGCTGTGG (double strand) [rhlR promoter] |  | no binding
